B1: Ras-related protein Rab-9A (Canis familiaris (dog)), P24408 (parent)
chain: MAGKSSLFKVILLGDGGVGKSSLMNRYVTNKFDTQLFHTIGVEFLNKDLEVDGHFVTMQIWDTAGQERFRSLRTPFYRGSDCCLLTFSVDDSQSFQNLSNWKKEFIYYADVKEPESFPFVILGNKIDISERQVSTEEAQAWCRDNGDYPYFETSAKDATNVAAAFEEAVRRVLATEDRSDHLIQTDTVSLHRKPKPSSSCC

Variants of: B1
Details: with rhbt3_human RHOBTB3, O94955
Sequence of rhbt3_human RHOBTB3, O94955 (O94955 whole entry): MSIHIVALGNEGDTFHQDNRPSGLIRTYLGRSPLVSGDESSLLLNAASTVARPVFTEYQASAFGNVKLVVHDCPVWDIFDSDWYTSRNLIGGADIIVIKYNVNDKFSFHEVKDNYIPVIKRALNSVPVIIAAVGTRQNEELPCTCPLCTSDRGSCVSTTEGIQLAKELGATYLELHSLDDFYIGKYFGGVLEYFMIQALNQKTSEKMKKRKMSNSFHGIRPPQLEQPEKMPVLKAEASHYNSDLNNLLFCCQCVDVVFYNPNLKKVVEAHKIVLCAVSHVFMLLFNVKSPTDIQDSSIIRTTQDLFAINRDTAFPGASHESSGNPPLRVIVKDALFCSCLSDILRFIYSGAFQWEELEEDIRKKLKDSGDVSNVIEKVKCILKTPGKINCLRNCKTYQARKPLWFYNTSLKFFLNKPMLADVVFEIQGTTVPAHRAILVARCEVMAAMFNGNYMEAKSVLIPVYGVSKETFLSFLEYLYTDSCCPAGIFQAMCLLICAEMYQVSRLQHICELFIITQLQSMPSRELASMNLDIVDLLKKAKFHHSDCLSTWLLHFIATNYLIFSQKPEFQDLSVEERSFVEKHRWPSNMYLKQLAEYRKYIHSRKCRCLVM

Variant	effect of a mutation on the interaction
S21N	decreasing interaction

Source: IntAct's records for PubMed 19490898
